B1: HDV Ribozyme (parent)
chain: GGCCGGCAUGGUCCCAGCCUCCUCGCUGGCGCCGGCUGGGCAACAUUCCGAGGGGACCGUCCCCUCGGUAAUGGCGAAUGGGACCCA

Variants of: B1
Assay: self-cleavage, relative activity (ratio to wild type); higher = more cleavage; co-transcriptional

Row | Variant | self-cleavage
1 | A43C A77G | 0.317
2 | C41U G68U | 0.504
3 | A42U G82A | 0.157
4 | A45C A71C | 0.831
5 | A43U C44A | 1.16
6 | A43U C62U | 0.394
7 | A43U C62G | 0.332
8 | A45C G59U | 0.507
9 | A42C A45C | 0.0462
10 | A43C A45U | 0.554
11 | C41U U69C | 0.955
12 | C41U G74C | 0.174
13 | C41U G74U | 0.806
14 | C44G U79G | 0.196
15 | A42U A51C | 0.665
16 | A45C G53C | 0.755
17 | C41U C85A | 0.937
18 | C41U C85G | 0.911
19 | A43G G53A | 0.532
20 | A43G C49A | 0.554
21 | A42C C63U | 0.19
22 | A43U C85G | 0.609
23 | A42U G54U | 0.465
24 | A42G A71G | 0.554

Row | Variant | self-cleavage
25 | C44A A56U | 0.614
26 | A43U U60A | 0.594
27 | A42U C63A | 0.325
28 | A43G G80C | 0.208
29 | A43G G67C | 0.465
30 | A43G G76C | 0.58
31 | A43G G76U | 0.892
32 | C44G U72C | 0.198
33 | A43U C84A | 0.346
34 | C44G C62A | 0.875
35 | A43U G81C | 0.181
36 | A42U C85G | 0.332
37 | A43G C61G | 0.739
38 | A42U U72G | 0.322
39 | A42C U79C | 0.124
40 | A42C U79A | 0.213
41 | A43G A83C | 0.268
42 | A42G A77C | 0.0723
43 | A43C G55C | 0.312
44 | A42G U72A | 0.369
45 | A43C U79G | 0.227
46 | A43C U79A | 0.0791
47 | A43C U79C | 0.113
48 | A43G A51G | 0.26

Row | Variant | self-cleavage
49 | A43U G52C | 0.743
50 | A43U G52U | 0.339
51 | A42G G67A | 0.435
52 | A43G G68U | 0.436
53 | A43G A77U | 0.0504
54 | A45C G67A | 0.719
55 | C41U U46A | 0.942
56 | C44U U46A | 0.767
57 | C44U C64G | 0.862
58 | A42G U47C | 0.532
59 | A42C C58G | 0.26
60 | A42C A71G | 0.361
61 | A45C G80A | 0.187
62 | C44A G59C | 0.796
63 | C44A G59A | 0.762
64 | C44U G55U | 0.831
65 | A42C G55U | 0.409
66 | C44U C61U | 0.716
67 | C44U C61A | 0.751
68 | A43C C63U | 0.529
69 | A43C C63A | 0.26
70 | A42C A70G | 0.312
71 | C44A C58A | 1.01
72 | A45C C62A | 0.584

Row | Variant | self-cleavage
73 | A45C C62G | 0.391
74 | A43U G76A | 0.554
75 | C44U C48U | 0.898
76 | A42C A83C | 0.101
77 | C44A C75A | 0.359
78 | C44A C75U | 0.218
79 | A42U G50A | 0.383
80 | A43C C64G | 0.415
81 | C41U G82U | 0.261
82 | C41U G82A | 0.246
83 | A45C A56G | 0.615
84 | A42C G80C | 0.101
85 | C44G G74C | 0.185
86 | A42U A78U | 0.284
87 | A42U A78C | 0.169
88 | A43G G81C | 0
89 | A43G G50U | 0.658
90 | C44A C84U | 0.431
91 | C44G A56U | 0.734
92 | A42G G50C | 0.287
93 | A42G G50U | 0.542
94 | A45C A78C | 0.135
95 | C44G C66U | 0.694
96 | C44A A71C | 0.332

Row | Variant | self-cleavage
97 | A42C C85G | 0.469
98 | A42C G68A | 0.253
99 | A42C G68U | 0.128
100 | A42C A77U | 0.369
101 | A42C A77C | 0.161
102 | C44A A45C | 0.692
103 | A42G C61A | 0.779
104 | C44A G53C | 0.686
105 | C44G G54C | 0.831
106 | C44G G54A | 0.831
107 | A43G U60C | 0.415
108 | A43U C64U | 0.588
109 | A43U C64G | 0.506
110 | A43U G73C | 0.43
111 | A43U G73A | 0.322
112 | A45C C49A | 0.72
113 | A43U A78G | 0.262
114 | A43U A78U | 0.0489
115 | C44U C62G | 0.464
116 | A43C U65G | 0.453
117 | A43C U65C | 0.482
118 | A43C U65A | 0.623
119 | A43C G67U | 0.299
120 | C41U G53A | 1.12

Row | Variant | self-cleavage
121 | C44G G50U | 0.767
122 | C44G G50C | 0.739
123 | C44A C85G | 0.629
124 | C44U A83C | 0.314
125 | C41U G73C | 0.507
126 | C41U G73A | 0.929
127 | C44G A45C | 0.578
128 | A42U U69G | 0.519
129 | A42U U69C | 0.437
130 | A42U U69A | 0.364
131 | A45C C48U | 0.642
132 | A45C C48A | 0.779
133 | C41U C75A | 0.0665
134 | A42G G59A | 0.831
135 | C44G C58U | 0.751
136 | A43U U47G | 0.361
137 | A43U G74C | 0.125
138 | A42U U60G | 0.615
139 | C44U A77C | 0.277
140 | A43U A71G | 0.405
141 | A43G U69C | 0.302
142 | A42G A83G | 0.361
143 | C41U G55A | 1.06
144 | C44U G59U | 0.854

Row | Variant | self-cleavage
145 | C44U G59A | 0.819
146 | A42C G74C | 0.166
147 | C44U A87G | 0.554
148 | A42U G73U | 0.378
149 | C44G C75A | 0.406
150 | A43C G81A | 0.248
151 | A42C C75A | 0.116
152 | A42C U72A | 0.266
153 | A43G G59A | 0.811
154 | A42G G52C | 0.733
155 | A42U A70U | 0.312
156 | A43G U47G | 0.997
157 | C44U U65G | 0.812
158 | C41U G52C | 0.819
159 | A42U G53A | 0.875
160 | A43U C48G | 0.435
161 | A43U A45U | 0.594
162 | C44U U60A | 0.594
163 | A42C U47G | 0.0594
164 | A42C U47C | 0.0791
165 | A43G G55U | 0.378
166 | A43G G55C | 0.743
167 | A42U A87C | 0.533
